The target of assay [1] is T1, E. coli DnaJ (Escherichia coli, UniProt P08622 1-376).
T1 construct: source: E. coli (DE3) Rosetta pLysS, purified (IMAC, TEV cleavage, second IMAC)
T1 sequence: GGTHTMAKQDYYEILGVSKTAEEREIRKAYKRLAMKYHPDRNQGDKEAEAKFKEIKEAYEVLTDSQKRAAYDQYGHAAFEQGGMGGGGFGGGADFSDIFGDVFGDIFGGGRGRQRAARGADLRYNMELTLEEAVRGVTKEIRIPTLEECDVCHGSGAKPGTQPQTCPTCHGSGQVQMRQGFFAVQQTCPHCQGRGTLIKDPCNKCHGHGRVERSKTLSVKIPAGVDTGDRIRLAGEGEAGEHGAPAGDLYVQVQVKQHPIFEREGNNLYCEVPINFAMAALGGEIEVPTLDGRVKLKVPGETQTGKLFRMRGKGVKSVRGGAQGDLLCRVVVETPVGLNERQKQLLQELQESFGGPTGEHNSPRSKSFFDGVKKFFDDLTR
In words: fluorescence polarisation; direct titration: protein serially diluted twofold in 23 steps, Cf-labeled peptide added (20 µL of 40 nmol/L to 20 µL); FP-buffer 20 mmol/L Tris-HCl, 150 mmol/L KCl, 5 mmol/L MgCl2, 1 mmol/L NaN3, 2 mmol/L DTT, pH 7.5; 2 h, 28°C, dark. The conditions noted are these: both partners purified. In general terms: In fluorescence polarisation assays a small probe gives low polarisation when free and higher when bound to something large.

Assay [2] deals with T2, E. coli GrpE (Escherichia coli, UniProt P09372 1-197).
T2 construct: also called co-chaperone GrpE; nucleotide exchange factor GrpE; source: E. coli (DE3) Rosetta pLysS, purified (IMAC, TEV cleavage, second IMAC)
T2 sequence: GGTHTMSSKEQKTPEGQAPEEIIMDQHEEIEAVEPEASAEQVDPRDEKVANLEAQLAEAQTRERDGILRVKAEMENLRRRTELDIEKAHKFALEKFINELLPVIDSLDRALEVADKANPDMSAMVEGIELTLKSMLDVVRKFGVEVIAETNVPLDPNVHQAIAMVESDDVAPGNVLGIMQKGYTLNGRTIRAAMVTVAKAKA
Described as above. The note with it: both partners purified.

Assay [3] deals with T3, E. coli DnaK (Escherichia coli, UniProt P0A6Y8 1-638).
T3 construct: source: E. coli (DE3) Rosetta pLysS, purified (IMAC, TEV cleavage, second IMAC)
Described as above. The note with it: both partners purified.

Assay [4] concerns the target T4, S. aureus DnaK (Staphylococcus aureus, UniProt P99110 1-610).
T4 construct: source: E. coli (DE3) Rosetta pLysS, purified (IMAC, TEV cleavage, second IMAC)
The assay is described as above. The conditions noted are these: both partners purified.

In assay [5] the target is T5, S. aureus GrpE (Staphylococcus aureus, UniProt P99086 1-208).
T5 construct: source: E. coli (DE3) Rosetta pLysS, purified (IMAC, TEV cleavage, second IMAC)
T5 sequence: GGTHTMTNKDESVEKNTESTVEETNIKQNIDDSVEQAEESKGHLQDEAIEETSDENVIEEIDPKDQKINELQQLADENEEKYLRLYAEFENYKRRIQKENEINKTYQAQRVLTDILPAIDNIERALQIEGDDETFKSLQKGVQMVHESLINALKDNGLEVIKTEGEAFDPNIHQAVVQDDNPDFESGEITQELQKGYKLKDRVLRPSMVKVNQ
The assay is described as above. The note with it: both partners purified.

Assay [6] addresses T6, E. coli DnaK/DnaJ/GrpE-chaperone system (Escherichia coli, UniProt P0A6Y8 1-638; P08622 1-376; P09372 1-197).
T6 construct: also called full chaperone system (E. coli); source: E. coli (DE3) Rosetta pLysS, each purified; mixed (ratio 0.6:1.0:0.9) and pre-incubated for 30 min at room temperature
The experiment in a line: fluorescence polarisation; as the direct titration, but with the full chaperone system: DnaK, DnaJ and GrpE (ratio 0.6:1.0:0.9) pre-incubated for 30 min at room temperature. The conditions noted are these: both partners purified.

Assay [7] deals with T7, S. aureus DnaK/DnaJ/GrpE-chaperone system (Staphylococcus aureus, UniProt P99110 1-610; P63971 1-379; P99086 1-208).
T7 construct: also called full chaperone system (S. aureus); source: E. coli (DE3) Rosetta pLysS, each purified; mixed (ratio 0.6:1.0:0.9) and pre-incubated for 30 min at room temperature
The description is as above. The conditions noted are these: both partners purified.

The target of assay [8] is T3, E. coli DnaK. The experiment in a line: cell-based or functional assay.
In assay [9] the target is T3, E. coli DnaK. The experiment in a line: fluorescence polarisation; competition screen at one concentration: unlabeled peptide 5 µmol/L with 5 µmol/L E. coli DnaK, or 35 µmol/L with 16 µmol/L S. aureus DnaK, 90 min 28°C, then Cf-ARV-1502 (10 µL of 80 nmol/L), 90 min 28°C; duplicates; FP normalized to ARV-1502. The note with it: both partners purified.
Assay [10] addresses T4, S. aureus DnaK. The description is as above. The conditions noted are these: both partners purified.

Square brackets hold non-standard residues; d marks the D form. Ends that are not written are not given here. Cf = 5(6)-carboxyfluorescein label; Ac6c = NC1(C(=O)O)CCCCC1

B1: Cf-ARV-1502 (peptide)
peptide: Cf-RPDKPRPYLPRPRPPRPVR
notes: also called 5(6)-carboxyfluorescein-labeled ARV-1502; source: synthetic peptide, in-house (Fmoc/tBu chemistry on Rink amide resin), RP-HPLC purified
With B1, the Kd (in general, the constant that tells how readily two partners part at equilibrium) is about 33.4 µM in assay [1]; about 213 µM in [2]; 0.2 µM in assay [3]; 25.1 µM in assay [4]; about 138 µM in [5]; 3.1 µM in assay [6]. Besides, the Kd in assay [7] is 30.2 µM.

B2: ARV-1502 (peptide)
peptide: [Ac6c]RPDKPRPYLPRPRPPRPVR-NH2
modifications: N-terminus assumed
SMILES: CC(C)C[C@H](NC(=O)[C@H](Cc1ccc(O)cc1)NC(=O)[C@@H]1CCCN1C(=O)[C@H](CCCNC(=N)N)NC(=O)[C@@H]1CCCN1C(=O)[C@H](CCCCN)NC(=O)[C@H](CC(=O)O)NC(=O)[C@@H]1CCCN1C(=O)[C@H](CCCNC(=N)N)NC(=O)C1(N)CCCCC1)C(=O)N1CCC[C@H]1C(=O)N[C@@H](CCCNC(=N)N)C(=O)N1CCC[C@H]1C(=O)N[C@@H](CCCNC(=N)N)C(=O)N1CCC[C@H]1C(=O)N1CCC[C@H]1C(=O)N[C@@H](CCCNC(=N)N)C(=O)N1CCC[C@H]1C(=O)N[C@H](C(=O)N[C@@H](CCCNC(=N)N)C(N)=O)C(C)C
For B2, the “refolding activity of the E. coli DnaK/DnaJ/GrpE-chaperone system (denatured luciferase refolding assay) at ARV-1502 concentrations ≥50 µmol/L, relative to no peptide” value in [8] is about 60%.

B3: peptide 105 (peptide)
peptide: [Ac6c]RPFFPRPYLPRKRPPRPVR-NH2
notes: source: synthetic peptide, bought: ABclonal, Inc
Consider B3, for which the binding result in assay [9] and in assay [10] was “binds” in each case.

B4: peptide 45 (peptide)
peptide: [Ac6c]RPKKPRPYLPRLRPPRPVR-NH2
modifications: N-terminus assumed
SMILES: CC(C)C[C@H](NC(=O)[C@H](CCCNC(=N)N)NC(=O)[C@@H]1CCCN1C(=O)[C@H](CC(C)C)NC(=O)[C@H](Cc1ccc(O)cc1)NC(=O)[C@@H]1CCCN1C(=O)[C@H](CCCNC(=N)N)NC(=O)[C@@H]1CCCN1C(=O)[C@H](CCCCN)NC(=O)[C@H](CCCCN)NC(=O)[C@@H]1CCCN1C(=O)[C@H](CCCNC(=N)N)NC(=O)C1(N)CCCCC1)C(=O)N[C@@H](CCCNC(=N)N)C(=O)N1CCC[C@H]1C(=O)N1CCC[C@H]1C(=O)N[C@@H](CCCNC(=N)N)C(=O)N1CCC[C@H]1C(=O)N[C@H](C(=O)N[C@@H](CCCNC(=N)N)C(N)=O)C(C)C
notes: as for B3
Regarding B4, the binding result in [9] and in assay [10] was “binds” in each case.

B5: Cf-peptide 102 (peptide)
peptide: Cf-RPFFPRPYLPLPRPPRPVR
notes: source: synthetic peptide, in-house (Fmoc/tBu chemistry on Rink amide resin), RP-HPLC purified
In the case of B5, the Kd in [4] was 1.6 µM; in assay [6] it was 0.6 µM; in assay [7], 1.6 µM.

B6: peptide 103 (peptide)
peptide: [Ac6c]RPFFPRPYLPFPRPPRPVR-NH2
notes: as for B3
For the molecule B6, the binding result in assay [9] and in [10] was “binds” throughout.

The record behind these values is publication PMC8864165, “Functional Effects of ARV-1502 Analogs Against Bacterial Hsp70 and Implications for Antimicrobial Activity” (Frontiers in Chemistry, 2022).
